These are literature values, as cited in publication PMC5100577.

The target in this data set is H2A-H2B dimer (Saccharomyces cerevisiae) (UniProt P04911). Kind of data set: fluorescence dequenching.
UniProt P04911, sequence (P04911 2-132, chain 1 of 2): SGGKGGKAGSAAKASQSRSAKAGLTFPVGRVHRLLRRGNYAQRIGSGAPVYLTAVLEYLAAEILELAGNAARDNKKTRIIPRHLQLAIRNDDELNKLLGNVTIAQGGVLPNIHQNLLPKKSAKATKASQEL
UniProt P04911, sequence (P02293 2-131, chain 2 of 2, further chain): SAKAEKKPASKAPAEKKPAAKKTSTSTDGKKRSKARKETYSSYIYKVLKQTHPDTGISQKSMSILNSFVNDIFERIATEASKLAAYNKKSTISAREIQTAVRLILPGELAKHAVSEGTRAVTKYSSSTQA

As a reminder, the Kd is the constant that tells how readily two partners part at equilibrium. As for FACT (from UniProt P32558), the equilibrium dissociation constant (Kd) is 0.0214 µM.
